Measurements reported in patent publication US12123009B2, “Methods and compositions for PPO herbicide tolerance in plants” (Monsanto Technology LLC, priority 2015, dated 2024).

Key:
[1] = system: soybean (A3555), non-transgenic or expressing H_N10 (SEQ ID NO:4); test: R0 soybean sprayed with flumioxazin; assay type: in vivo; settings: 210 g/ha, V3, 8 days
Protocol: In soybean, excised embryos (A3555) were transformed with the transformation constructs 1 and 11 using A. tumefaciens and standard methods known in the art. […] Regenerated R0 transgenic plantlets were grown in the greenhouse. […] The herbicide was sprayed at the V3 developmental stage with three fully developed trifoliate leaves and injury ratings were assessed 8 days after treatment. The percentage of plants that were deemed highly tolerant (15% or less injury) was noted.

[2] = system: C=Cc1c2[nH]c(c1C)Cc1[nH]c(c(CCC(=O)O)c1C)Cc1[nH]c(c(C)c1CCC(=O)O)Cc1[nH]c(c(C)c1C=C)C2; test: purified protein, by the assay type; settings: other: apparent Km for protoporphyrinogen, pH 7.4, 37° C.
[3] = system: H_N110 (SEQ ID NO: 10), microbial HemG protoporphyrinogen oxidase; test: PPO enzyme assay (bacterial extract); settings: apparent Km for protoporphyrinogen; pH 7.4, 37° C.
[4] = system: Maize (Zea mays) protoporphyrinogen oxidase (PPO), wild type; test: PPO enzyme assay (plastid extract); assay type: biochemical; settings: apparent Km for protoporphyrinogen; pH 7.4, 30° C.
[5] = system: H_N60 (SEQ ID NO: 3), microbial HemG protoporphyrinogen oxidase; test: PPO enzyme assay (bacterial extract); settings: apparent Km for protoporphyrinogen; pH 7.4, 37° C.
[6] = system: Soybean (Glycine max) protoporphyrinogen oxidase (PPO), wild type; test: PPO enzyme assay (plastid extract); assay type: biochemical; settings: apparent Km for protoporphyrinogen; pH 7.4, 30° C.
[7] = system: Waterhemp (Amaranthus tuberculata) protoporphyrinogen oxidase (PPO), wild type; test: PPO enzyme assay (plastid extract); assay type: biochemical; settings: apparent Km for protoporphyrinogen; pH 7.4, 30° C.
transgenic maize plants = test: R0 transgenic maize 40 g/ha S-3100 spray test; assay type: in vivo; settings: for Average Injury / Highly Tolerant (number of plants with less than 10% injury): 40 grams/ha S-3100 at V5, 7 days after treatment, R0 plants; for injury rates when expressed in transgenic plants (crop tolerance to a PPO herbicide): R0 transgenic maize data
From the text: H_N60 (SEQ ID NO:3). […] These five constructs had the same promoter plus leader plus intron combination, with two different targeting peptide (TP) sequences, and the same 3′UTR sequence. Leaf samples were taken from the R0 plants and analyzed by PCR to determine the transgene copy number. Single copy plants for up to 12 unique events per construct were transplanted to pots, selfed and outcrossed to generate R1 and F1 seed, respectively, for future testing. Multi-copy plants and extra single copy plants were sprayed with 40 grams/ha 5-3100 at approximately the V5 growth stage and injury ratings were taken 7 days after treatment. The average percent (%) injury for all plants expressing each PPO enzyme and the number of plants that were deemed highly tolerant (less than 10% injury) was noted, where each plant is a unique single or multi-copy transformant.

R0 soybean plants = test: R0 transgenic soybean herbicide tolerance at eleven weeks; assay type: in vivo; settings: R0 plants sprayed with S-3100 at eleven weeks, rated seven days after treatment
Protocol: The plantlets in the non-sprayed containers corresponding to constructs having a score of 2 were transplanted at approximately 7 weeks post transformation and grown as R0 plants using standard methods known in the art. Plantlets corresponding to non-tolerant scores of 0 and 1 were also grown to serve as negative controls. The R0 plants were grown in a greenhouse under long-day nursery conditions (18 hr light at 80° F. then 6 hr dark at 74° F.) for approximately four weeks. At eleven weeks, the R0 plants were sprayed with two passes of the same herbicide solution (0.3 g of 5-3100) described above. Herbicide injury ratings were collected seven days after treatment.
The results of the herbicide tolerance application at eleven weeks to the R0 plants confirmed the low percent injury rating scores observed in the high-throughput screen at five weeks. Any injury rating of 30% or above was equivalent to non-transgenic soybean injury ratings. A few of the constructs stood out as providing very good tolerance to the herbicide application. […] Data are provided in Table 10, where n.d. indicates the analysis was not conducted.

soybean plantlets = test: High-throughput soybean screening for herbicide tolerance (plantlets); assay type: in vivo, soybean (A3555); set-up: key: 0 for poor tolerance, high damage, low green coloration; 1 for some tolerance, average damage, moderate green coloration; 2 for good tolerance, low damage, high green coloration; settings: S-3100 spray five weeks post-transformation, scored day four
From the text: A high-throughput plant transformation and screening method was used to evaluate large numbers of constructs in transgenic plants for herbicide tolerance in early transformation plantlet tissue. This allowed for faster and higher volume screening of construct configurations and PPO enzymes.
This permitted the side-by-side comparison of seven different HemG PPO enzymes with thirty-seven different targeting peptides using the same promoter and 3′UTR elements for gene expression. These plant transformation constructs were used to transform soybean excised embryos (germplasm A3555) using A. tumefaciens and standard methods known in the art. Four hundred explants were inoculated for each construct resulting in twelve containers per construct. A sterile PPO herbicide solution was used for herbicide tolerance testing. The herbicide solution consisted of 0.3 g of S-3100 in crop oil concentrate (5.0 mL) and 495 mL of deionized water. This was filtered through a 0.45 micron Nalgene® Rapid-Flow™ Tissue Culture Filter Unit and Surfactant-Free Cellulose Acetate membrane filter unit (VWR, Radnor, PA, USA). The resulting sterile solution was shaken before application.
At five weeks post-transformation, four of the twelve plant containers per construct were sprayed with two passes of the sterile PPO herbicide solution. The treated plantlets were then enclosed in the container and received at least 15 hours of light exposure post spray each day for four days. At the end of day four post application of S-3100, the treated plantlets were photographed and scored on a visual scale of green coloration (green coloration was representative of healthy photosynthetic plant tissue as compared to photo-bleached tissue) versus damage. The scoring values were 0 for poor tolerance, high damage, low green coloration; 1 for some tolerance, average damage, moderate green coloration; and 2 for good tolerance, low damage, high green coloration. The scoring for each construct is presented in Table 9, where n.d. indicates the analysis was not conducted.

[8] = H_N10 (SEQ ID NO:4), construct 11

`C#CCN1C(=O)COc2cc(F)c(N3C(=O)C4=C(CCCC4)C3=O)cc21` [flumioxazin] was tested, and the average injury rating [1, 8] was 22%, the “highly tolerant plants (15% or less injury)” value [1, 8] was 9% and the average injury rating ([1]; non-transgenic) was 30%. For the same molecule, the “highly tolerant plants (15% or less injury)” value ([1]; non-transgenic) was “no highly tolerant plants”.

Molecule “H_N10 (SEQ ID NO: 4), E. coli wild-type HemG protoporphyrinogen oxidase (Escherichia coli CFT073)” has a Km [2] of 0.7 µM.

“H_N30 (SEQ ID NO: 5), microbial HemG protoporphyrinogen oxidase (Winslowiella toletana)” was tested, and the Km [2] was 1.0 µM.

In the case of “H_N20 (SEQ ID NO: 2), microbial HemG protoporphyrinogen oxidase (Pantoea ananatis LMG 5342)”, the Km [2] is reported as 0.8 µM.

With `C=Cc1c2[nH]c(c1C)Cc1[nH]c(c(CCC(=O)O)c1C)Cc1[nH]c(c(C)c1CCC(=O)O)Cc1[nH]c(c(C)c1C=C)C2` [protoporphyrinogen, protoporphyrinogen IX] the Km [3] was 0.3 µM, the Km [4] was 2 µM and the Km [5] was 1.1 µM. It also gave a Km [6] of 1.8 µM and a Km [7] of 0.7 µM.

“H_N50 (SEQ ID NO: 7), microbial HemG protoporphyrinogen oxidase (Shimwellia blattae DSM 4481 = NBRC 105725)” was tested, and the Km [2] was 1.0 µM.

B1: H_N110: microbial HemG protoporphyrinogen oxidase, SEQ ID NO:10 (protein, listed as Enterobacter mori)
chain: MKILILFSTRDGQTREIAASLASELKEQAFDVDVVNLHRAENIAWEEYDGVVIGASIRYGHFHSTLNSFVKKHQQALKKLPGAFYSVNLVARKPEKRTPQTNSYTRKFLLDSPWQPDLSAVFAGALRYPRYNWYDRIMIRLIMKITGGETDTRKEVVYTDWQQVTHFAHEIVQLVRK
With B1 the “Average Injury” value (transgenic maize plants) was 43.0%, the “Highly Tolerant (number of plants with less than 10% injury)” value (transgenic maize plants) was “did not produce any highly tolerant plants” and the “injury rates when expressed in transgenic plants (crop tolerance to a PPO herbicide)” value (from here on “injury rates when expressed”) (transgenic maize plants) was “reduced injury rates”.

B2: H_N40: microbial HemG protoporphyrinogen oxidase, SEQ ID NO:6 (SEQ ID NO:15 lacking start methionine) (protein, listed as Pectobacterium carotovorum)
chain: MKALIVFSSRDGQTRAIASYIANTLKGTLECDVVNVLNANDIDLSQYDRVAIGASIRYGRFHPAVNQFIRKHLTSLQQLPSAFFSVNLTARKPEKRTIQTNAYTRKFLLNSPWQPDLCCVFAGALRYPRYRWFDRVMIQLIMRITGGETDSTKEIEYTDWQQVARFAQDFAQLAAKNPA
In the case of B2, the percent injury score (R0 soybean plants; TP1) is reported as 5%, the percent injury score (R0 soybean plants; TP13) is reported as 15% and the percent injury score (R0 soybean plants; TP14) is reported as 35%. The percent injury score (R0 soybean plants; TP15) was 30%, the percent injury score (R0 soybean plants; TP21) was 35% and the percent injury score (R0 soybean plants; TP25) was 15%. It also gave a coloration score (soybean plantlets; TP9) of 0, a coloration score (soybean plantlets; TP11) of 1 and a coloration score (soybean plantlets; TP12) of 1. It also gave a coloration score (soybean plantlets; TP13) of 1, a coloration score (soybean plantlets; TP14) of 2 and a coloration score (soybean plantlets; TP15) of 2. For the same molecule, the coloration score (soybean plantlets; TP17) was 1, the coloration score (soybean plantlets; TP18) was 1 and the coloration score (soybean plantlets; TP19) was 1. It also gave a coloration score (soybean plantlets; TP21) of 2, a coloration score (soybean plantlets; TP23) of 1 and a coloration score (soybean plantlets; TP24) of 0. It also gave a coloration score (soybean plantlets; TP25) of 2, a coloration score (soybean plantlets; TP26) of 1 and a coloration score (soybean plantlets; TP27) of 1. It also gave a coloration score (soybean plantlets; TP28) of 1, a coloration score (soybean plantlets; TP29) of 1 and a coloration score (soybean plantlets; TP30) of 1. It also gave a coloration score (soybean plantlets; TP31) of 1, a coloration score (soybean plantlets; TP32) of 1 and a coloration score (soybean plantlets; TP33) of 0. The “Average Injury” value (transgenic maize plants) was 47.0%, the “Highly Tolerant (number of plants with less than 10% injury)” value (transgenic maize plants) was 53 and the “injury rates when expressed” value (transgenic maize plants) was “reduced injury rates”.

B3: H_N60: microbial HemG protoporphyrinogen oxidase, SEQ ID NO:3 (protein, listed as Pantoea stewardii)
chain: MKALILYSTRDGQTRKIASSIADVIRQQQQCDVLNIKDASLPDWAQYDRVLIGASIRYGHFQPVVDKFVKQHLHELQQRTSGFFSVNLTARKPEKRSPETNAYTQKFLAHSPWQPDCCAVFAGALYYPRYRWFDRVMIQLIMRMTGGETDSTKEVEYTDWQQVSTFANDFAQLPGKS
B3 was tested, and the “Average Injury” value (transgenic maize plants) was 55.8%, the “Highly Tolerant (number of plants with less than 10% injury)” value (transgenic maize plants) was 19 and the “injury rates when expressed” value (transgenic maize plants) was “reduced injury rates”.
